The term Kd denotes a measure of binding affinity in units of concentration.

These results are taken from patent publication US20130072665A1.

For assay [1], the target named is cynomolgus monkey PCSK9 (cynomolgus monkey). Put plainly: BIAcore, antibody immobilised, pH 7.4.
The target is the same in assay [2]. Put plainly: KinExA solution equilibrium. (In general: Kinetic exclusion samples the free partner from a solution-phase mixture.)
Assay [3] has as its target human PCSK9 (proprotein convertase subtilisin kexin type 9) (human) (UniProt Q8NBP7). Kind of assay: BIAcore solution equilibrium, pH 7.4.
For assay [4] the target is unchanged. Put plainly: BIAcore solution equilibrium, pH 6.0. Background: SPR reads the build-up and loss of mass on a sensor chip optically.
The target of assay [5] is cynomolgus monkey PCSK9 (cynomolgus monkey). Put plainly: BIAcore solution equilibrium, column To Cyno PCSK9.
The target in assay [6] is human PCSK9 (proprotein convertase subtilisin kexin type 9) (human) (UniProt Q8NBP7). Put plainly: BIAcore solution equilibrium, pH 5.5.
The target in another assay is 31H4, anti-PCSK9 huIgG4. Put plainly: KinExA solution equilibrium, % free 31H4.1 against [cPCSK9]; curve with diamonds; 10 pM or 100 pM 31H4 series not labelled.
Chain of 31H4, anti-PCSK9 huIgG4 (heavy, as listed by the source, chain 1 of 2): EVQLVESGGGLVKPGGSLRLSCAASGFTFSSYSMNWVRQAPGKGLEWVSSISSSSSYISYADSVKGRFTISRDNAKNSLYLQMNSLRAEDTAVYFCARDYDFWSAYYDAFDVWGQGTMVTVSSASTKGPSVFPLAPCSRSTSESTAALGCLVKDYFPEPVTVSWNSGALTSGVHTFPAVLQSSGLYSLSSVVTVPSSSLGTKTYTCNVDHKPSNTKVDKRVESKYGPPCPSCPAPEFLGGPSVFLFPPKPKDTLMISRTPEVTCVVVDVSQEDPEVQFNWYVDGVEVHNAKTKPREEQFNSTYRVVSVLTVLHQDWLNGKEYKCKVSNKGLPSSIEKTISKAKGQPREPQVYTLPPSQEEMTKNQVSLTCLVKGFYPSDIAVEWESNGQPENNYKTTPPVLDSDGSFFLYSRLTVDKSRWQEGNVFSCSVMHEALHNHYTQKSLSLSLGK
Chain of 31H4, anti-PCSK9 huIgG4 (light, as listed by the source, chain 2 of 2): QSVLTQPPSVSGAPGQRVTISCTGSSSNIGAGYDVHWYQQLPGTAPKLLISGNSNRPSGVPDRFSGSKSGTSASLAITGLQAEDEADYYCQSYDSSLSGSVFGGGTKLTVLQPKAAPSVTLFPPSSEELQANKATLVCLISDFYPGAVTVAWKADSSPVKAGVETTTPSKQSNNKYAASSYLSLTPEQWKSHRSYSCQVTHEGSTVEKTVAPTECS

31H4, anti-PCSK9 huIgG4 (antibody): the Kd in assay [1] was 190 pM; in assay [2], 2 pM.

AMG145 (antibody): the Kd worked out at 19 pM in assay [3], 6 pM in assay [4], 8 pM in assay [5] and 28 pM in assay [6].

For “cynomolgus monkey PCSK9 (from UniProt A0A7N9D9N8 150-747) (enzyme)”, the IC50 (read off the curve) with 31H4, anti-PCSK9 huIgG4 is 10 pM.
